{"source": "patent JP2024513915A", "about": "(dated 2024)", "binders": {"B1": {"name": "AMV564 (bispecific antibody)", "chain": "DIQMTQSPSSLSASVGDRVTITCRSSTGAVTTSNYANWVQQKPGKAPKALIGGTNKRAPGVPSRFSGSLIGDKATLTISSLQPEDFATYYCALWYSNLWVFGQGTKVEIKGGSGGSQVQLVQSGAEVKKPGASVKVSCKASGYTFTSYDINWVRQAPGQGLEWMGWMNPNSGNTGFAQKFQGRVTMTRDTSTSTVYMELSSLRSEDTAVYYCARDRANTDYSLGMDVWGQGTLVTVSSGGSGQSVLTQPPSASGTPGQRVTISCSGSRSNIGSNTVNWYQQLPGTAPKLLIYGNNQRPSGVPDRFSGSKSGTSASLAISGLQSEDEADYYCATWDDSLIGWVFGGGTKLTVLGGSGGSEVQLVESGGGLVQPGGSLRLSCAASGFTFSTYAMNWVRQAPGKGLEWVGRIRSKYNNYATYYADSVKDRFTISRDDSKNSLYLQMNSLKTEDTAVYYCARHGNFGNSYVSYFAYWGQGTLVTVSS"}}, "biological_target": "CD33 (UniProt P20138 18-364, limits assumed)", "sequence (P20138 18-364 limits assumed)": "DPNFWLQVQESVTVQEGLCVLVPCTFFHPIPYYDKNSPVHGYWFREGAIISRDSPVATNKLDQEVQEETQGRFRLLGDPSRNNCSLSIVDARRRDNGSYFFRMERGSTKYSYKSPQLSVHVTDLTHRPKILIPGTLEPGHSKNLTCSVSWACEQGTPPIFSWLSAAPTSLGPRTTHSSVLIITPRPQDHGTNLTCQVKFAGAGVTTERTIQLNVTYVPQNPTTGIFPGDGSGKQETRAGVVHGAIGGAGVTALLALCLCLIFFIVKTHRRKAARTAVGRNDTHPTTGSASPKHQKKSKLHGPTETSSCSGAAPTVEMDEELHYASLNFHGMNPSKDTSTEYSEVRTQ", "assay": "cell-based or functional assay", "data": [{"binder": "B1", "values": [{"measurement": "CD4+及びCD8+T細胞増殖", "value": "> 2", "unit": "fold"}]}]}
